Patent US20210107998A1 (Boehringer Ingelheim, published 2021)

Legend:
[1] = target: T1, cynomolgus IL-23 (cynomolgus, UniProt H6WS56 20-189); experiment: cell-based or functional assay
[2] = target: T2, Recombinant human IL-23 (human, UniProt P29460 23-328); experiment: cell-based or functional assay
T2 sequence 1: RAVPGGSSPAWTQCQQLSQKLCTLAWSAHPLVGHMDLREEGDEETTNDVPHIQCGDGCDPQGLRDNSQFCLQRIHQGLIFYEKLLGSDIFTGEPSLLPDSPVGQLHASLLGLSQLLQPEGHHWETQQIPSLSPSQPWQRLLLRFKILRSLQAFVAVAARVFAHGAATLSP
T2 sequence 2: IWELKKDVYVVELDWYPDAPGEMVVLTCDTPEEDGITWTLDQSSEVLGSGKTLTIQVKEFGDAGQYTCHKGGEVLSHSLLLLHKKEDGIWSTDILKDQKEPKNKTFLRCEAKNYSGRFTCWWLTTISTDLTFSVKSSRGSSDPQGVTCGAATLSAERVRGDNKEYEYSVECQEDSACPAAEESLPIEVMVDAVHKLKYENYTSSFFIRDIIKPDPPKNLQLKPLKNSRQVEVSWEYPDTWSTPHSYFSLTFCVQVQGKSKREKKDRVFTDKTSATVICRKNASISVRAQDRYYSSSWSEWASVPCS

[3] = target: membrane-bound human BAFF on fixed CHO-K1 cells (human, UniProt Q9Y275 1-285); experiment: cell-based or functional assay
[4] = target: T1, cynomolgus IL-23; experiment: SPR (ProteOn XPR36), compound captured on goat anti-human IgG Fc, antigen injected
Method: (§1) SPR experiments were performed on a ProteOn XPR36 instrument (Bio Rad). A GLM chip was preconditioned with sequential injections of 60 sec of 0.5% SDS, 50 mM NaOH, and 100 mM HCl at a flow rate of 30 μl/min both vertical and horizontal directions.
(§2) The preconditioned GLM chip was then activated by an injection of EDC (76.7 mg/ml) and sulfo-NHS (21.7 mg/ml) mixture with ratio of 1:1 in 6 horizontal channels. Goat-anti-human IgG (GAHA) Fc gamma (Invitrogen) at a concentration of 30 μg/ml in 10 mM, pH 5.0 sodium acetate buffer was immobilized to 8,000 resonance units on the activated GLM chip in 6 horizontal channels. The chip was finally deactivated with 1 M ethanolamine HCl in 6 horizontal channels. The prepared GAHA chip was rotated to vertical direction to capture test compounds, over 5 vertical channels and the last channel was used as a column reference. The captured chip was then rotated again to the horizontal direction for binding. […] The dissociation was allowed for 2 hour. The GAHA surface was regenerated using short pulse injection (18 seconds) of 0.85% phosphoric acid (Bio Rad) at a flow rate of 100 μl/min both horizontal and vertical directions after 10 min association and 2 hr dissociation. The regenerated GAHA was ready for another binding cycle.

[5] = target: T3, cynomolgus BAFF (cynomolgus, UniProt A0A2K5V2X4 134-285); experiment: as above
T3 construct: construct not described
Method: as §1, §2

[6] = target: T4, Linked human IL-23 (Boehringer Ingelheim Pharmaceuticals, Inc.) (human, UniProt P29460 23-328); experiment: as above
T4 sequence 1: T2 sequence 1
T4 sequence 2: T2 sequence 2
Method: as §1, §2

[7] = target: T5, human BAFF (human, UniProt Q9Y275 134-285, limits assumed); experiment: as above
T5 construct: also called hu BAFF; hBAFF
Method: as §1, §2

[8] = target: T6, Recombinant human BAFF trimer (Boehringer Ingelheim Pharmaceuticals, Inc.) (human, UniProt Q9Y275 134-285, limits assumed); experiment: cell-based or functional assay
[9] = target: Recombinant cynomolgus BAFF trimer (Boehringer Ingelheim Pharmaceuticals, Inc.) (cynomolgus, UniProt A0A2K5V2X4 134-285); experiment: cell-based or functional assay
[10] = target: T5, human BAFF; experiment: BLI (Octet RED96, streptavidin tips), compound incubated 48 h at 37 C in whole blood vs kinetic buffer
Method: (§3) A whole blood interference assay was developed on an Octet RED96 to detect the effects of non-specific binding or off-target binding for compounds in the presence of whole blood (WB). The compound solutions in whole blood and 1× kinetic running buffer (1×kb) were incubated at a temperature of 37° C. for 48 hours. Kinetic measurements for the incubated compound samples were performed with an Octet RED96 equipped with streptavidin (SA) biosensor tips (ForteBio, Menlo Park, Calif.) at 27° C. The ratio of the on-rates/binding signals in buffer and whole blood were reported. A ratio <2 was considered to show no interference.

[11] = target: T2, Recombinant human IL-23; experiment: as above
Method: as §3

[12] = target: Recombinant human BAFF 60mer (Boehringer Ingelheim Pharmaceuticals, Inc.) (human, UniProt Q9Y275 134-285, limits assumed); experiment: cell-based or functional assay
[13] = target: T2, Recombinant human IL-23; experiment: cell-based or functional assay; remark: listed apart in the source
[14] = target: T6, Recombinant human BAFF trimer …; experiment: cell-based or functional assay; remark: listed apart in the source

B1: Compound A (bispecific antibody, human IgG1, kappa, L234A L235A)
chain 1: DIQMTQSPSSLSASVGDRVTITCKASRDVAIAVAWYQQKPGKVPKLLIYWASTRHTGVPSRFSGSGSRTDFTLTISSLQPEDVADYFCHQYSSYPFTFGSGTKLEIKGGGSGGGGQVQLVQSGAEVKKPGASVKVSCKASGYSFSTFFIHWVRQAPGQGLEWIGRIDPNSGATKYNEKFESRVTMTRDTSISTAYMELSRLRSDDTAVYYCARGEDLLIRTDALDYWGQGTSVTVSSLGGGSGASTKGPSVFPLAPSSKSTSGGTAALGCLVKDYFPEPVTVSWNSGALTSGVHTFPAVLQSSGLYSLSSVVTVPSSSLGTQTYICNVNHKPSNTKVDKRVEPKSCDKTHTCPPCPAPEAAGGPSVFLFPPKPKDTLYITREPEVTCVVVDVSHEDPEVKFNWYVDGVEVHNAKTKPREEQYNSTYRVVSVLTVLHQDWLNGKEYKCKVSNKALPAPIEKTISKAKGQPREPQVYTLPPSREEMTKNQVSLTCLVKGFYPSDIAVEWESNGQPENNYKTTPPVLDSDGSFFLYSKLTVDKSRWQQGNVFSCSVMHEALHNHYTQKSLSLSPG
chain 2: DIQMTQSPSSLSASVGDRVSITCKASQNAGIDVAWFQQKPGKAPKLLIYSKSNRYTGVPSRFSGSGSGTDFTLTISSLQPEDFATYYCLQYRSYPRTFGQGTKLEIKGGGSGGGGQVQLVQSGAEVKKPGSSVKVSCKASGYTFTDQTIHWMRQAPGQGLEWIGYIYPRDDSPKYNENFKGKVTITADKSTSTAYMELSSLRSEDTAVYYCAIPDRSGYAWFIYWGQGTLVTVSSLGGGSGRTVAAPSVFIFPPSDEQLKSGTASVVCLLNNFYPREAKVQWKVDNALQSGNSQESVTEQDSKDSTYSLSSTLTLSKADYEKHKVYACEVTHQGLSSPVTKSFNRGEC
notes: Made in CHO-S cells
IC50, IL-23-induced mouse IL-17 release from mouse splenocytes [1]: 0.155 nM
IC90, IL-23-induced mouse IL-17 release from mouse splenocytes [1]: 1.31 nM
IC50, IL-23-induced mouse IL-17 release from mouse splenocytes [2]: 0.146 nM
IC90, IL-23-induced mouse IL-17 release from mouse splenocytes [2]: 1.65 nM
IC50, NFkB luciferase reporter, human BAFFR-CHO cells stimulated with fixed human BAFF CHO-K1 cells [3]: 0.118 nM
IC90, NFkB luciferase reporter, human BAFFR-CHO cells stimulated with fixed human BAFF CHO-K1 cells [3]: 1.02 nM
Kd [4]: < 0.015 nM
Kd [5]: < 0.015 nM
Kd [6]: < 0.015 nM
Kd [7]: < 0.015 nM
IC50, NFkB luciferase reporter, human BAFFR-CHO cells [8]: 0.043 nM
IC90, NFkB luciferase reporter, human BAFFR-CHO cells [8]: 0.18 nM
IC50 Geomean, NFkB luciferase reporter, human BAFFR-CHO cells [9]: 0.132 nM
IC90 Geomean, NFkB luciferase reporter, human BAFFR-CHO cells [9]: 0.191 nM
Ratio of binding signal in WB/kinetic buffer [10]: 1.2
Ratio of binding signal in WB/kinetic buffer [11]: 1.1
IC50, NFkB luciferase reporter, human BAFFR-CHO cells [12]: 0.006 nM
IC90, NFkB luciferase reporter, human BAFFR-CHO cells [12]: 0.019 nM
IC50, STAT3-luciferase reporter in DB lymphoblast B cells [13]: 0.145 nM
IC90, STAT3-luciferase reporter in DB lymphoblast B cells [13]: 1.23 nM
IC50 Geomean, NFkB luciferase reporter, human TACI-CHO cells [14]: 0.159 nM
IC90 Geomean, NFkB luciferase reporter, human TACI-CHO cells [14]: 0.417 nM
